Measurements published in PMC3711439, “Mechanisms of in vivo binding site selection of the hematopoietic master transcription factor PU.1”.

B1: PU.1 motif oligo 68 (dsDNA)
DNA 1: ACGTGACTTCTGCTTTACGT
DNA 2: ACGTAAAGCAGAAGTCACGT
B2: PU.1 motif oligo 67 (dsDNA)
DNA 1: ACGTGACTTCCTTCACACGT
DNA 2: ACGTGTGAAGGAAGTCACGT
B3: PU.1 motif oligo 71 (dsDNA)
DNA 1: ACGTTGCTTCCTCCCTACGT
DNA 2: ACGTAGGGAGGAAGCAACGT
B4: PU.1 motif oligo 61 (dsDNA)
DNA 1: ACGTATCTTCCTCATAACGT
DNA 2: ACGTTATGAGGAAGATACGT
B5: PU.1 motif oligo 73 (dsDNA)
DNA 1: ACGTAACTTCTTCAAAACGT
DNA 2: ACGTTTTGAAGAAGTTACGT
B6: PU.1 motif oligo 72 (dsDNA)
DNA 1: ACGTAATTTCCTCATCACGT
DNA 2: ACGTGATGAGGAAATTACGT
B7: PU.1 motif oligo 64 (dsDNA)
DNA 1: ACGTGACTTCCACAATACGT
DNA 2: ACGTATTGTGGAAGTCACGT
B8: PU.1 motif oligo 75 (dsDNA)
DNA 1: ACGTCAGTTCTGCATTACGT
DNA 2: ACGTAATGCAGAACTGACGT
B9: PU.1 motif oligo 66 (dsDNA)
DNA 1: ACGTCAGTTCTCTTTTACGT
DNA 2: ACGTAAAAGAGAACTGACGT
B10: PU.1 motif oligo 8 (dsDNA)
DNA 1: ACGTCACTTCCCCTTAACGT
DNA 2: ACGTTAAGGGGAAGTGACGT
B11: PU.1 motif oligo 10 (dsDNA)
DNA 1: ACGTCACTTCCTGTTTACGT
DNA 2: ACGTAAACAGGAAGTGACGT
B12: PU.1 motif oligo 63 (dsDNA)
DNA 1: ACGTCACTTCCACAGTACGT
DNA 2: ACGTACTGTGGAAGTGACGT
B13: PU.1 motif oligo 9 (dsDNA)
DNA 1: ACGTCACTTCCTCTCAACGT
DNA 2: ACGTTGAGAGGAAGTGACGT
B14: PU.1 motif oligo 69 (dsDNA)
DNA 1: ACGTCAGTTCTGCTTTACGT
DNA 2: ACGTAAAGCAGAACTGACGT
B15: PU.1 motif oligo 70 (dsDNA)
DNA 1: ACGTATCTTCCTCACTACGT
DNA 2: ACGTAGTGAGGAAGATACGT
B16: PU.1 motif oligo 74 (dsDNA)
DNA 1: ACGTCTCTTCCTTAAAACGT
DNA 2: ACGTTTTAAGGAAGAGACGT
B17: PU.1 motif oligo 65 (dsDNA)
DNA 1: ACGTTTCTTCCTCTTCACGT
DNA 2: ACGTGAAGAGGAAGAAACGT
B18: PU.1 motif oligo 62 (dsDNA)
DNA 1: ACGTCTCTTCCTCCCTACGT
DNA 2: ACGTAGGGAGGAAGAGACGT

Target: PU.1 (human, UniProt P17947 1-270)
Assay: MST; MST: 20 mM Tris-HCl pH 7.6, 1.5 mM MgCl2, 0.5 mM EGTA, 10% glycerol, 300 mM KCl, 10 mM DTT, 25 C; 50 nM Cy3-dsDNA, PU.1 1:1 dilutions from 23 uM
Conditions: protein: recombinant; tags: N-terminal His-tag; label: Cy3 on upper strand

Point of comparison: B18, Kd 1940 ± 1260 nM. Against it:
- B1 — within error, 828 ± 51 nM
- B2 — within error, 1240 ± 370 nM
- B3 — within error, 2200 ± 1640 nM
- B4 — within error, 790 ± 77 nM
- B5 — within error, 1520 ± 580 nM
- B6 — within error, 1080 ± 251 nM
- B7 — within error, 1220 ± 350 nM
- B8 — within error, 1190 ± 140 nM
- B9 — within error, 2000 ± 40 nM
- B10 — 4.4-fold lower, 441 ± 18 nM
- B11 — 11-fold lower, 175 ± 16 nM
- B12 — within error, 1930 ± 220 nM
- B13 — within error, 676 ± 67 nM
- B14 — within error, 909 ± 28 nM
- B15 — within error, 2020 ± 100 nM
- B16 — within error, 1150 nM
- B17 — within error, 872 ± 57 nM
